The text below walks through data of patent US20190233522A1, “NEW DOSAGE REGIMENS FOR ANTIBODY DRUG CONJUGATES BASED ON ANTI-AXL ANTIBODIES” (GENMAB A/S, priority 2016, published 2019).

The test system of one series is PAXF1657 tumors. Nature of the series: PAXF1657 pancreas cancer PDX model. The series is classed as in vivo, NMRI nu/nu mice. As to the method:
Human pancreas tumor tissue was subcutaneously implanted in the left flank of 5-7 weeks old female NMRI nu/nu mice. […] At day of randomization (day 0), the 3 ADCs were dosed intravenously (i.v.) at either 4 mg/kg or 2 mg/kg, and the control group received a single dose of IgG1-b12 (4 mg/kg). Tumor volumes (mm^3) were monitored twice weekly and were calculated from caliper (PLEXX) measurements as: 0.52×(length)×(width)^2.

Series [1] in a line: Pre-clinical PK studies in cynomolgus monkey. The series is classed as in vivo. The text has this: Data from 5 in-vivo pre-clinical studies, shown in the Table below, were provided, containing measurements of the plasma ADC level, plasma IgG level, and plasma MMAE level (only measured in study 5).
All studies appeared to show a significant drop in plasma concentrations of ADC/IgG after the 2nd dose when compared to the first dose, which corresponded with an ADA response. As this is a fully human antibody, ADA response are only very rarely expected to occur in humans. Therefore, only data after the first dose were included in the data preparation and subsequently modelled.

The subject of series [2] is LCLC-103H xenograft tumors. Nature of the series: Therapeutic treatment of SC LCLC-103H tumor xenografts (Example 3). The series is classed as in vivo, SCID mice. The conditions noted are these: for tumor volume versus control IgG1-b12: day 30, One Way ANOVA (Dunnett's); for anti-tumor activity in established SC LCLC-103H tumors: single i.p. injection 1 mg/kg, SCID mice. The method, then:
The in vivo efficacy of MMAE-conjugated anti-AXL antibodies was determined in established subcutaneous (SC) LCLC-103H xenograft tumors in SCID mice. 5×10^6 LCLC-103H (large cell lung carcinoma) tumor cells (obtained from Leibniz-Institut DSMZ-Deutsche Sammlung von Mikroorganismen and Zellkulturen GmbH (DSMZ)) in 200 μL PBS were injected subcutaneously in the right flank of female SCID mice. Starting 14-21 days after tumor cell inoculation, when the average tumor size was >100-200 mm^3 and distinct tumor growth was observed, a single injection with 1 mg/kg (20 μg/mouse) IgG1-AXL-vcMMAE antibodies or control (unconjugated IgG1-b12) was given intraperitoneally (100 μL/mouse). Tumor volume was determined at least two times per week. Tumor volumes (mm^3) were calculated from caliper (PLEXX) measurements as: 0.52×(length)×(width)^2.

The subject of a further series is CEXF 773 tumors. The series is described as follows: Cervix carcinoma PDX model CEXF 773. The settings on record: for anti-tumor activity on CEXF 773 tumors: 4 mg/kg i.v. day 0 and day 7; for average tumor size versus IgG1-b12 and IgG1-b12-vcMMAE: day 28, 4 mg/kg i.v. day 0 and 7, p<0.001. In kind it is in vivo, NMRI nu/nu mice. The method, then:
The anti-tumor activity of IgG1-AXL-183-vcMMAE and IgG1-AXL-726-vcMMAE was evaluated in the patient derived cervix carcinoma xenograft CEXF 773 model in NMRI nu/nu mice (Harlan, Netherlands). Experiments were performed by Oncotest (Freiburg, Germany).
Tumor fragments were obtained from xenografts in serial passage in nude mice. After removal from donor mice, tumors were cut into fragments (4-5 mm diameter) and placed in PBS (with 10% penicillin/streptomycin) until subcutaneous implantation. Mice under isofluorane anesthesia received unilateral, subcutaneous tumor implants in the flank. Tumors were allowed to grow until the tumor volume was 50-250 mm^3.
The treatment groups were: IgG1-b12, IgG1-b12-vcMMAE, IgG1-AXL-183-vcMMAE and IgG1-AXL-726-vcMMAE. The antibodies and ADCs were dosed intravenously (i.v.) at 4 mg/kg on the day of randomization (day 0) and on day 7. Tumor volumes (mm^3) were monitored twice weekly and were calculated from caliper (PLEXX) measurements as: 0.52×(length)×(width)^2.

Another series deals with MDA-MB-231 tumors. The series is described as follows: Orthotopic MDA-MB-231 D3H2LN breast cancer xenograft model. The series is classed as in vivo, SCID mice. The settings on record: for anti-tumor activity on MDA-MB-231 tumors: 4 biweekly doses of 3 mg/kg; for average tumor size versus IgG1-b12 and IgG1-b12-vcMMAE: day 32, 4 biweekly doses of 3 mg/kg, P<0.001 One Way Anova. The method, then:
The anti-tumor activity of IgG1-AXL-183-vcMMAE and IgG1-AXL-726-vcMMAE was evaluated in an orthotopic MDA-MB-231 D3H2LN xenograft model.
MDA-MB-231-luc D3H2LN Bioware cells (mammary gland adenocarcinoma; Perkin Elmer, Waltham, Mass.) were implanted in the mammary fat pad of 6-11 week old, female SCID (C.B-17/IcrPrkdc-scid/CRL) mice (Charles-River) under isofluorane anesthesia. Tumors were allowed to grow and mice were randomized when tumors reached a volume of ˜325 mm^3. […] The treatment groups were: IgG1-b12, IgG1-b12-vcMMAE, IgG1-AXL-183-vcMMAE and IgG1-AXL-726-vcMMAE. The animals received a total of 4 biweekly doses of 3 mg/kg antibody or ADC starting at the day of randomization. Tumor volumes (mm^3) were monitored twice weekly and were calculated from caliper (PLEXX) measurements as: 0.52×(length)×(width)^2.

Another series has as its system LCLC-103H tumors. Nature of the series: LCLC-103H xenograft model (low Gas6, Example 5). The series is classed as in vivo. The settings on record: 3 mg/kg i.p., SCID mice. The method, then:
(§1) Tumor induction was performed by subcutaneous injection of 5×10^6 A431 or LCLC-103H tumor cells (both obtained from Leibniz-Institut—Deutsche Sammlung von Mikroorganismen and Zellkulturen GmbH (DSMZ)) in 200 μL PBS in the right flank of female SCID mice. Treatment was started 14-21 days after tumor cell inoculation, when the average tumor size was >100-200 mm^3 and distinct tumor growth was observed. Mice received a single injection or a total of 4 biweekly intraperitoneal injections with IgG1-AXL-vcMMAE ADCs or control antibody (unconjugated IgG1-b12), as indicated. Tumor volume was determined at least two times per week. Tumor volumes (mm^3) were calculated from caliper (PLEXX) measurements as: 0.52×(length)×(width)^2.

The subject of another series is A431 tumors. Nature of the series: A431 xenograft model (high Gas6). The series is classed as in vivo. The conditions noted are these: 3 mg/kg i.p., SCID mice. As to the method:
as §1

Positions count from the first letter of the chain named. Numbers in names are those of the source.

B1: IgG1-AXL-148 (antibody, V domains shown)
VH: EVQLLESGGGLVQPGGSLRLSCAASGFTFSSYAMTWVRQAPGKGLEWVSAISISGGSTFYADSVKGRFTISRDNSKNTLYLQMNSLRAEDTAVYYCRGYSGYVYDAFDFWGQGTMVTVSS
VL: DIQMTQSPSSLSASVGDRVTITCRASQGISNWLAWYQQKPEKAPKSLIYAASSLQSGVPSRFSGSGSGTDFTLTISSLQPEDFATYYCQQYNSYPLTFGGGTKVEIK
As for B1, in the series on PAXF1657 tumors (dose not given), the “anti-tumor activity in the PAXF1657 model” value is reported as “did not result in anti-tumor activity”. Moreover, the “pharmacokinetic properties, unconjugated antibody (study 3) versus ADC (study 2)” value in series [1] was “similar”.

B2: IgG1-AXL-511-vcMMAE: anti-AXL antibody 511 (VH SEQ ID No 136, VL SEQ ID No 140) conjugated to vcMMAE (conjugate)
VH: EVQLLESGGGLVQPGGSLRLSCAASGFTFSSYAMNWVRQAPGKGLEWVSGISGSGGHTYHADSVKGRFTISRDNSKNTLYLQMNSLRAEDTAVYYCAKDRYDILTGYYNLLDYWGQGTLVTVSS
VL: B1 VL with N31S, K42E, T102A
modifications: vc-MMAE conjugate; homo sapiens
As to B2, the “tumor volume versus control IgG1-b12” value in series [2] (1 mg/kg single i.p.) is given as “significant tumor growth inhibition”. Besides, in series [2], the “anti-tumor activity in established SC LCLC-103H tumors” value is “induced tumor growth inhibition”.

B3: IgG1-AXL-726-vcMMAE: anti-AXL antibody 726 (FN2-binder) conjugated to vcMMAE (conjugate)
VH: QVQLQQWGAGLLKPSETLSLTCAIDGGSFSGYYWSWIRQPPGKGLEWIGEISHSGRTNYNPSLKSRVTISIDTSKNQFSLKLSSVAAADTAVYYCARFITMIRGAIITHFDYWGQGALVTVSS
VL: B1 VL with N31S, N92H, L96Y, G100Q, V104L
B3: in the series on CEXF 773 tumors, the “anti-tumor activity on CEXF 773 tumors” value is “induced tumor regression”; the “average tumor size versus IgG1-b12 and IgG1-b12-vcMMAE” value was “significantly smaller”. Moreover, in the series on MDA-MB-231 tumors, the “anti-tumor activity on MDA-MB-231 tumors” value is listed as “induced tumor regression”; the “average tumor size versus IgG1-b12 and IgG1-b12-vcMMAE” value is on record as “significantly smaller”. For the same molecule, the “anti-tumor activity in the LCLC-103H xenograft model” value in the series on LCLC-103H tumors was “induced tumor regression”. In addition, the “anti-tumor activity on A431 tumors” value in the series with A431 tumors is “induced growth inhibition”.

B4: IgG1-AXL-726-M101L-vcMMAE: anti-AXL antibody 726-M101L (VH SEQ ID No 32, VL SEQ ID No 33) conjugated to vcMMAE (conjugate)
VH: B3 VH with M101L
VL: B1 VL with N31S, N92H, L96Y, G100Q, V104L
modifications: vc-MMAE conjugate; homo sapiens
Consider B4, for which the “tumor volume versus control IgG1-b12” value in series [2] (1 mg/kg single i.p.) is “not significant affected”. In addition, the “anti-tumor activity in established SC LCLC-103H tumors” value in series [2] was “no or only minor tumor growth inhibition”.

B5: IgG1-AXL-733-vcMMAE: anti-AXL antibody 733 (VH SEQ ID No 34, VL SEQ ID No 35) conjugated to vcMMAE (conjugate)
VH: QVQLVESGGGVVQPGRSLRLSCAASGFSFSTYAMHWVRQAPGKGLEWVAVISYDGDNKYSADSVKGRFTISRDNSKNTLYLQMNSLRAEDTAVYYCARGRKLGIDAFDIWGQGTMVTVSS
VL: AIQLTQSPSSLSASVGDRVTITCRASQGISSALAWYQQKPGKAPKLLIYDASSLESGVPSRFSGSGSGTDFTLTISGLQPEDFATYYCQQFNSYPFTFGPGTKVDIK
modifications: vc-MMAE conjugate; homo sapiens
In the case of B5, in series [2] (1 mg/kg single i.p.), the complete tumor reduction result is “in some mice within these groups to complete tumor reduction” and the “tumor volume versus control IgG1-b12” value is reported as “highly significant difference”. Further, the “anti-tumor activity in established SC LCLC-103H tumors” value in series [2] was “induced tumor regression”. The “growth of PAXF1657 tumors compared to the control group” value in the series on PAXF1657 tumors (2 mg/kg i.v., day 0) was “significantly reduced the growth”. The “anti-tumor activity on PAXF1657 tumors” value in the series with PAXF1657 tumors (4 mg/kg i.v., day 0) is given as “induced tumor regression”. In addition, in the series on PAXF1657 tumors (day 14, 2 mg/kg or 4 mg/kg, p<0.001 Tukey's multiple comparison test), the “average tumor size versus isotype control IgG1-b12” value is “significantly smaller”. Further, the “anti-tumor activity on A431 tumors” value in the series with A431 tumors is on record as “induced growth inhibition”.

B6: IgG1-AXL-183-N52Q-vcMMAE: anti-AXL antibody 183-N52Q (VH SEQ ID No 17, VL SEQ ID No 18) conjugated to vcMMAE (conjugate)
VH: QVQLQQWGAGLLKPSETLSLTCAVYGGSFSGYYWSWIRQPPGKGLEWIGEIQQSGSTNYNPSLKSRVTISVDTSKNQFSLKLSSVTAADTSVYYCASGNWDHFFDYWGQGTLVTVSS
VL: DIQMTQSPSSVSASVGDRVTITCRASQGISSWLAWYQHKPGKAPKLLIYATSSLQSGVTSRFSGSGSGTDFTLTISSLQPEDFATYYCQQAKSFPWTFGQGTKVEIK
modifications: vc-MMAE conjugate; homo sapiens
For B6, the “tumor volume versus control IgG1-b12” value in series [2] (1 mg/kg single i.p.) was “not significant affected”. For the same molecule, the “anti-tumor activity in established SC LCLC-103H tumors” value in series [2] is “no or only minor tumor growth inhibition”.

B7: IgG1-AXL-183-vcMMAE: anti-AXL antibody 183 (FN1-binder) conjugated to vcMMAE (conjugate)
VH: B6 VH with Q52N
VL: B6 VL
On to B7, for which, in the series with CEXF 773 tumors, the “anti-tumor activity on CEXF 773 tumors” value is recorded as “induced tumor regression”; the “average tumor size versus IgG1-b12 and IgG1-b12-vcMMAE” value was “significantly smaller”. Moreover, in the series on MDA-MB-231 tumors, the “anti-tumor activity on MDA-MB-231 tumors” value is “induced tumor regression”; the “average tumor size versus IgG1-b12 and IgG1-b12-vcMMAE” value was “significantly smaller”. Also, in the series on LCLC-103H tumors, the “anti-tumor activity in the LCLC-103H xenograft model” value is listed as “induced tumor regression”. Besides, the “anti-tumor activity on A431 tumors” value with A431 tumors is listed as “induced growth inhibition”.
